Patent US20120114665A1

Target: T1, penta-his-tagged hRANKL (human)
T1 sequence: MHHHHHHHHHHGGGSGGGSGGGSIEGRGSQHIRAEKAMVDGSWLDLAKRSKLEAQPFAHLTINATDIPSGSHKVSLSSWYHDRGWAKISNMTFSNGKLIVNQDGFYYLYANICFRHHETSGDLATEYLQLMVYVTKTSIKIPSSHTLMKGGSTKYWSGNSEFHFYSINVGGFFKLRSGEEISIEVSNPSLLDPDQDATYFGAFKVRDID
Experiment: competition ELISA: 150 pM his-hRANKL pre-mixed with antibody, free RANKL detected on hRANK-hFc plate

Chain of Control: Human anti-hRANKL mAb, SEQ ID NO: 2 and 4 of U.S. Pat. No. 7,364,736 (antibody) (VH): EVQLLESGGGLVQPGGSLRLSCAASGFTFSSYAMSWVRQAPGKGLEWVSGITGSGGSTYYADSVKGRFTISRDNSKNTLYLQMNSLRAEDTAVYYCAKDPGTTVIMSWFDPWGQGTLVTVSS
Chain of Control: Human anti-hRANKL mAb, SEQ ID NO: 2 and 4 of U.S. Pat. No. 7,364,736 (antibody) (VL): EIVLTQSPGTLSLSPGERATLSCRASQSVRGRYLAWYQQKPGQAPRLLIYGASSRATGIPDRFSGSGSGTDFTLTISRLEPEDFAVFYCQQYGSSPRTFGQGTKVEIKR

Control: Human anti-hRANKL mAb, SEQ ID NO: 2 and 4 of U.S. Pat. No. 7,364,736 (antibody)
IC50: 0.095 nM
